Measured values as given in patent US20160230226A1.

Target: IL13Rα2 (human) (UniProt Q14627)
Assay: cell-based or functional assay

UniProt Q14627, sequence (Q14627 27-380): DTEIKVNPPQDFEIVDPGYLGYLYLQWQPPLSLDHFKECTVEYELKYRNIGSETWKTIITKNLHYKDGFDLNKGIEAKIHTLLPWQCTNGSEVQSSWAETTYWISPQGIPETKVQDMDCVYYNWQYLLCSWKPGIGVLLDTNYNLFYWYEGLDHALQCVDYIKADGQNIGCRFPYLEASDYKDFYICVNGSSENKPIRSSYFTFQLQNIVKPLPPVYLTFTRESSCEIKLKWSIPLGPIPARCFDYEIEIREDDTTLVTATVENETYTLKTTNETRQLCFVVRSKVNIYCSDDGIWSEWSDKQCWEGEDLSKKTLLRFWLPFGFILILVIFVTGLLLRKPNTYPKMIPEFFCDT

IL-13 (from UniProt P35225 35-146) (ligand)
IL-13 concentration needed for the same CCL26 or periostin gene induction in IMR90 cells pre-stimulated with TNFα (elevated IL13Rα2) versus not pre-stimulated: 10 fold
